We go through 2 substances from patent US20220306715A1.

Test [1] concerns the target interleukin-6 (IL-6) receptor. Nature of the test: cell-based or functional assay.
A further test addresses anti-IL-6ST antibody. Nature of the test: sandwich ELISA on the MSD platform; capture: plate-bound anti-IL-6ST antibody; detection: anti-IL-12A antibody. On the technique in general: An ELISA detects its analyte on a solid surface through an enzyme-linked reagent.

Take tocilizumab (antibody): the EC50 of induction of apoptosis in IL-6 dependent DS-1 cells cultured 24 hours with IL-6 (caspase 3/7 luciferase assay) in test [1] amounted to 317 nM.
Broadly, the EC50 (read off the curve) is the midpoint of the concentration-response curve. In the case of “mIL-6R-Fc-IL-35 chimeric protein (from UniProt Q00560 23-617; P43431 23-215; P22272 20-364; O35228 19-228) (Fc fusion)”, the concentration giving a half-maximal response (EC50 (read off the curve)) with anti-IL-6ST antibody came to 0.7 µg/mL.
